Patent US11491212

B1: FIXa-K247N/N249S/N260S/R318Y/R338E/R403E/E410N (protein)
chain 1: not shown
chain 2: not shown
B2: FIXa-R318Y/R338E/T343R/R403E/E410N (protein)
chain 1: not shown
chain 2: not shown
B3: FIXa-Y155F/R318Y/R338E/T343R/R403E/E410N (protein)
chain 1: not shown
chain 2: not shown
B4: FIXa-D104N/K106S/R318Y/R338E/T343R/R403E/E410N (protein)
chain 1: not shown
chain 2: not shown
B5: FIXa-R318Y/R338E/N346Y/R403E/E410N (protein)
chain 1: not shown
chain 2: not shown
B6: FIXa-R318Y/R338E/T343R/N346Y/R403E/E410N (protein)
chain 1: not shown
chain 2: not shown
B7: FIXa-R318Y/R338E/T343R/N346D/R403E/E410N (protein)
chain 1: not shown
chain 2: not shown
B8: FIXa-R318Y/R338E/Y345A/R403E/E410N (protein)
chain 1: not shown
chain 2: not shown
B9: FIXa-K247N/N249S/R318Y/R338E/T343R/E410N (protein)
chain 1: not shown
chain 2: not shown

Chain of Factor X (FX), P00742 (P00742 whole entry, looked up): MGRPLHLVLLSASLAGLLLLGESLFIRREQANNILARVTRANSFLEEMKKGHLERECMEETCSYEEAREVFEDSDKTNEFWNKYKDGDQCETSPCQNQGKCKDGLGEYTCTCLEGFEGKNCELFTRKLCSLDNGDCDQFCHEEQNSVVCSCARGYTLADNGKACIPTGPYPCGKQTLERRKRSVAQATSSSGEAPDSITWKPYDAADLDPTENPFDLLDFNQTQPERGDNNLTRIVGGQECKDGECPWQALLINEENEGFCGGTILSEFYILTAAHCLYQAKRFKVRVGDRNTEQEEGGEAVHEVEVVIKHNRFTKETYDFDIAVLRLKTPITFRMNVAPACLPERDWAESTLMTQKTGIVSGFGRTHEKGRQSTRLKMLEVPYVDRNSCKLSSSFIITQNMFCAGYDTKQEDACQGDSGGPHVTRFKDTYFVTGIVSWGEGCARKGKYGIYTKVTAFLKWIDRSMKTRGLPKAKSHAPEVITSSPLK
Chain of Factor X, P00742 (P00742 whole entry, looked up): as above

Protein	% of WT kcat/KM (against Catalyst Biosciences WT FIXa), FX activation in the Xase complex (Factor X (FX), P00742) [%]	KM (Factor X (FX), P00742) [µM]	KM (nM) for activation of FX by FIXa in the Xase complex (FVIIIa, PC/PS vesicles, Ca2+), fluorogenic Spectrafluor FXa assay (Factor X (FX), P00742) [nM]	kcat (Factor X (FX), P00742) [s⁻¹]	kcat/KM for FX activation by FIXa in the Xase complex (FVIIIa, PC/PS vesicles, Ca2+), indirect fluorogenic Spectrafluor FXa assay (Factor X (FX), P00742) [M⁻¹ s⁻¹]	kcat/KM (Factor X, P00742) [M⁻¹ s⁻¹]	KM (Factor X, P00742) [µM]
B1	217	0.0474	62.2	3.4	9.7e+07	6.7e+07	
B2	1217	0.0247	22.3	9.7	5.4e+08	4.2e+08	
B3		0.0272		7.8		3e+08	
B4		0.0266		5.7		2.2e+08	
B5		0.0281		3.4		1.2e+08	
B6		0.0158		4.6		3.1e+08	
B7		0.067		5.4		8.2e+07	
B8		0.0188		1.4		8.3e+07	
B9				8.8			0.0328
